Assay results as given in patent US20130302346A1 (LEXICON PHARMACEUTICALS, published 2013).
Positions count from the first letter of the chain named. Read-outs that look alike come from different tables or passages of the source.

T1: Human NOTUM (human, UniProt Q6P988 20-496)
T1 sequence: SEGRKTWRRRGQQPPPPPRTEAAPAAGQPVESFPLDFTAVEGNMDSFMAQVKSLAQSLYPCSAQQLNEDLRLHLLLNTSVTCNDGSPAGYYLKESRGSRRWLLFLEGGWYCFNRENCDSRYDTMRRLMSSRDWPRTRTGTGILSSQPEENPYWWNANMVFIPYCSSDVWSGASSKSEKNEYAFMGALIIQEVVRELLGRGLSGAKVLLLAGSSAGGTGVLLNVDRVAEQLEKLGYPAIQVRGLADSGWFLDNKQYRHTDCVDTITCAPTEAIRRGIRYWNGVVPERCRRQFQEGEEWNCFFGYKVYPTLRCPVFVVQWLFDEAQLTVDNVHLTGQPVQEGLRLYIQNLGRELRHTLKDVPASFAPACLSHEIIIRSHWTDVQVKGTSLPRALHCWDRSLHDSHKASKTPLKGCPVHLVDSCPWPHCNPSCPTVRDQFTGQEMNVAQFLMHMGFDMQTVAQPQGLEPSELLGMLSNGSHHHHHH

T2: Mouse NOTUM (mouse, UniProt Q8R116 20-503)
T2 sequence: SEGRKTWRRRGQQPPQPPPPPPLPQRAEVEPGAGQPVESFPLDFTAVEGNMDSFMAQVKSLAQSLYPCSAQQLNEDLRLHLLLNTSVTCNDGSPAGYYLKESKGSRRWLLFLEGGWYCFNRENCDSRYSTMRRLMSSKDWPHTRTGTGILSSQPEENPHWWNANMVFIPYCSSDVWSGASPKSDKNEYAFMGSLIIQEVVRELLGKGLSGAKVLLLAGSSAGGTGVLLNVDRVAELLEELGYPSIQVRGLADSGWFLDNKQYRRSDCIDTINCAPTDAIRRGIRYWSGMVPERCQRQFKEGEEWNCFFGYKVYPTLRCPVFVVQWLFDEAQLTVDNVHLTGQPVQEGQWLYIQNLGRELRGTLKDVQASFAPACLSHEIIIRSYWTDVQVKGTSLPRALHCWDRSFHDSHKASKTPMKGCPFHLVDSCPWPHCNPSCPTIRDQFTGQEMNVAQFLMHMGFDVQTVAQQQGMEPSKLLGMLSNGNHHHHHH

T3: Guinea pig NOTUM (guinea pig, UniProt Q6P988 21-496 (human entry))
T3 construct: Expressed by transient transfection
T3 chain: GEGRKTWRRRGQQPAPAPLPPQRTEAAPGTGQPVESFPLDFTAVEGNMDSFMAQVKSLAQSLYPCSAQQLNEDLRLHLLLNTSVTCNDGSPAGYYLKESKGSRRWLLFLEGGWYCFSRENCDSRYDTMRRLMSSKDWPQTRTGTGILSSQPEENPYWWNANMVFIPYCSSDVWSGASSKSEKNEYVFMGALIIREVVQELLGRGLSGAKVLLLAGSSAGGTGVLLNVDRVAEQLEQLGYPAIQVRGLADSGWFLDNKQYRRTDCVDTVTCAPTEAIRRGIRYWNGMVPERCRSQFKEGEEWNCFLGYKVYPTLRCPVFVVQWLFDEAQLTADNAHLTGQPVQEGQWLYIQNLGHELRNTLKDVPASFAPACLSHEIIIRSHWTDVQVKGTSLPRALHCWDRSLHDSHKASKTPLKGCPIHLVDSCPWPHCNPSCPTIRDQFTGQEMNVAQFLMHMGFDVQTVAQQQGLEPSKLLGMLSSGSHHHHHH

T4: Rhesus monkey NOTUM (rhesus monkey, UniProt Q6P988 20-491 (human entry))
T4 construct: Produced by transient transfection; also called Rhesus macaque NOTUM; rhesus NOTUM
T4 chain: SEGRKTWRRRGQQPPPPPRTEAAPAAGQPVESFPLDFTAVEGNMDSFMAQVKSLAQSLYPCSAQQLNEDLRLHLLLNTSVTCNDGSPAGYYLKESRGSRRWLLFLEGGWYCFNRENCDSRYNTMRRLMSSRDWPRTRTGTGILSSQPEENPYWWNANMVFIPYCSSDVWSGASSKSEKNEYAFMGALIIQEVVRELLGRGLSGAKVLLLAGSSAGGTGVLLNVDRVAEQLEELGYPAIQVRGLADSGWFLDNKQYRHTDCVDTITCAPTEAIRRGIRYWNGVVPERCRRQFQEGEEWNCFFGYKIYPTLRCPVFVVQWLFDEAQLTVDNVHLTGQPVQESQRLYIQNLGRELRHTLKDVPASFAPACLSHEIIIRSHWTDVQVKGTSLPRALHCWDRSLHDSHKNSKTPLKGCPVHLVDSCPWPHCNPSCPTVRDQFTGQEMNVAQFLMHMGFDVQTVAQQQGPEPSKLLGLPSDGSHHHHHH

T5: Human NOTUM D137A/R139A (human, UniProt Q6P988 20-496)
T5 construct: Alanine mutant, expressed and secreted after transient transfection; little to no activity in the OPTS assay
T5 sequence: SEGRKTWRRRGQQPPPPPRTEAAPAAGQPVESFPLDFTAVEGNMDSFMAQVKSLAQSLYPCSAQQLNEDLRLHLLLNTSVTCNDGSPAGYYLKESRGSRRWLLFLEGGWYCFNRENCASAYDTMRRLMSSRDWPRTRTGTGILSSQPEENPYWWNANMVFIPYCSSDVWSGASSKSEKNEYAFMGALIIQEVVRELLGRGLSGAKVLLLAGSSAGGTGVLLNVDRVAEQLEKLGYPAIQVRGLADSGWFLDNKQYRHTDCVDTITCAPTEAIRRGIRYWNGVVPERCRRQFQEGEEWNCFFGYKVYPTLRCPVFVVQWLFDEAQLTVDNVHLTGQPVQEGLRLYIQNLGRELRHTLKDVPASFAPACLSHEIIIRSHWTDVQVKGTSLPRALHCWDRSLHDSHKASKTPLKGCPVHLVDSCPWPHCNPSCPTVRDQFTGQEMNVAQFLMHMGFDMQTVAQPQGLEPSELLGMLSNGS

T6: Human NOTUM R144A/R145A (human, UniProt Q6P988 20-496)
T6 construct: Alanine mutant, expressed and secreted after transient transfection
T6 sequence: T5 sequence with A118D, A120R, R125A, R126A

B1: MAb 1.731 (antibody, IgG1, V domains shown)
VH: EVQLQQSGPELVKPGASVKVSCKASGYPFTDYFIHWVKQTHGKSLEWIGYFFPKNGANGYNQKFEGKVTLTVDKSSSTAYMELRSLTSEDSAVYYCARRYGNYYSMDYWGQGTSVTVSS
VL: SFVMTQTPKFLLVSAGDRVTITCKASQSVGDDVAWYQQKPGQSPTLLIYRVSNRYTGVPDRFTGSGYGTDFTFTINTVQAEDLAVYFCQQDYSSPYTFGGGTQLEVKR
B2: MAb 2.55 (antibody, IgG2a, V domains shown)
VH: EVQLQQSGTVLARPGALVKMSCKASGYTFTSYWMHWVKQRPGQGLEWIGAIYPGKSDTRYNQKFKDKAKLTAVTSTSTAYMDLSSLTDEDSAVYYCSRRYGNFYAMDYWGQGTSVTVSS
VL: SIVMTQTPKFLLVSAGDRVTMTCKASQSVSNDVAWYQQKPGQSPELLIYYASDRYTGVPDRFTGSGYGTDFTLTISTVQAEDLAVYFCQQDYSSPYTFGGGTKLETKR
notes: Mouse monoclonal antibody from Campaign 2, IgG2a
B3: 1.802 Fab (Fab, V domains shown)
VH: EVQLVESGGGLVKPGGSLKLSCAASGFTFSDYGMHWFRQAPEKGLEWVAYISSGSRTVYYADTVKGRFTISRDNAKNTLSLQMTSLRSEDTAMYYCARKHYNGGYFDVWGTGTTVTVSS
VL: DIVLTQSPASLAVSLGQRATISCRASKIVSTSGYSYMHWYQQKPGQPPKLLIYLASNLESGVPARFSGSGSGTDFTLNIHPVEEEDAATYYCQHSRELPPTFGSGTKLEIKR
notes: Fab made by digestion of whole IgG (mouse IgG1) with ficin
B4: MAb 2.1029 (antibody, IgG2a, V domains shown)
VH: QVQLKESGPGLVAPSQSLSITCTVSGFSLTSYGVHWVRQPPGKGLEWLGVIWAGGSTNYNSALMSRLSISKDNSKSQVFLKMNSLQTDDTAIYFCARDGDYGTIYAMDYWGQGTSVTVSS
VL: DIQMTQTTSSLSASLGDRVTISCRASQDISNYLNWYQQKPDGTVKLLIYYTSRLHSGVPSRFTGSGSGTDYSLTISNLEQEDIATYFCQQGKTLPRTFGGGTMLEIKR
notes: as for B2
B5: MAb 2.78 (antibody, V domains shown)
VH: DVQLVESGGGLVQPGGSRKLSCAASGFTFSSFGMHWVRQAPEKGLEWVAYITSGSGAIYYADTVRGRFTISRDTPKNTLFLQMTSLRSEDTAMYYCARSADGLDYWGQGTSVTVSS
VL: DIQMTQSPASLYVSVGETVTITCRASENIYSNLAWYQQKQGKSPQLLVYGATNLADGVPSRFSGSGSGTQYSLKINSLKSEDFGSYYCQHFWGTPFTFGSGTKLEIKR
notes: Mouse monoclonal antibody from Campaign 2 (raised against mouse NOTUM), IgG2b
B6: 2.78 Fab (Fab, V domains shown)
VH: B5 VH
VL: B5 VL
notes: Fab made by digestion of whole IgG (mouse IgG2b) with ficin

Key:
Human NOTUM [1] = biological target: T1, Human NOTUM; assay: cell-based or functional assay
Mouse NOTUM [2] = biological target: T2, Mouse NOTUM; assay: cell-based or functional assay
Mouse NOTUM [3] = biological target: T2, Mouse NOTUM; assay: cell-based or functional assay; remark: listed apart in the source
Human NOTUM [4] = biological target: T1, Human NOTUM; assay: ELISA (column 'Human NOTUM binding')
Human NOTUM [5] = biological target: T1, Human NOTUM; assay: Biacore 3000
Experimental: (§1) Binding affinities of certain anti-NOTUM MAbs was determined using a Biacore 3000. In order to obtain meaningful affinity values for binding to multimeric […] NOTUM protein, antibody FAb fragments were generated by digestion of whole IgG with the protease Ficin, followed by removal of undigested IgG and Fc fragments by protein A affinity chromatography. Affinity values for binding of FAbs and whole IgG to human NOTUM corresponded, and their affinity values were in the single to low double digit nM range, as shown in Table 3.

Mouse NOTUM [6] = biological target: T2, Mouse NOTUM; assay: Biacore 3000
Experimental: as §1

Guinea pig NOTUM = biological target: T3, Guinea pig NOTUM; assay: ELISA
Rhesus monkey NOTUM = biological target: T4, Rhesus monkey NOTUM; assay: ELISA
Human NOTUM [7] = biological target: T1, Human NOTUM; assay: cell-based or functional assay; remark: listed apart in the source
Human NOTUM [8] = biological target: T1, Human NOTUM; assay: cell-based or functional assay; remark: listed apart in the source
Human NOTUM D137A/R139A = biological target: T5, Human NOTUM D137A/R139A; assay: ELISA
Human NOTUM R144A/R145A = biological target: T6, Human NOTUM R144A/R145A; assay: ELISA

Binder	OPTS IC50 (nM; mouse NOTUM) (Mouse NOTUM [3])	Kd (Human NOTUM [5])	kon (Human NOTUM [5])	binding result (Guinea pig NOTUM)	binding result (Rhesus monkey NOTUM)	OPTS IC50 (nM; human NOTUM) (Human NOTUM [8])	Wnt signaling IC50 (nM; human NOTUM) (Human NOTUM [8])	other results
B1								OPTS IC50 (nM; human NOTUM) (Human NOTUM [1]): > 167 nM; Wnt signaling IC50 (nM; human NOTUM) (Human NOTUM [1]): 15.5 nM; OPTS IC50 (nM; mouse NOTUM) (Mouse NOTUM [2]): 197 nM
B2	26.1 nM							binding result (Human NOTUM [4]): binds
B3		0.91 nM	899000 M⁻¹ s⁻¹					binding result (Mouse NOTUM [6]): no binding
B4	29.2 nM	5.99 nM	151000 M⁻¹ s⁻¹	binds	binds	5.77 nM	14 nM	IC50, neutralization in the Wnt signaling assay (Human NOTUM [7]): 14 nM
B5	35.6 nM	17.6 nM	47900 M⁻¹ s⁻¹	binds	binds	15.5 nM	45.9 nM	binding result (Human NOTUM D137A/R139A): no binding; binding result (Human NOTUM R144A/R145A): no binding; Wnt signaling IC50 (nM; mouse NOTUM) (Mouse NOTUM [3]): 3.75 nM
B6		15.4 nM	87700 M⁻¹ s⁻¹					koff (Human NOTUM [5]): 0.00136 s⁻¹; Kd (Mouse NOTUM [6]): 4.99 nM; kon (Mouse NOTUM [6]): 39100 M⁻¹ s⁻¹
